We go through 125 sequences from the supplement of paper PMC9112550, “Optimization of the antimicrobial peptide Bac7 by deep mutational scanning” (BMC Biology, 2022).
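Further: peptides expressed intracellularly from a pBAD plasmid library in pooled LB shake-flask culture, induced with 0.3% L-arabinose, DNA abundance read by NGS, three biological replicates, DESeq2 with apeglm shrinkage.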

For this data set, the system named is Escherichia coli TOP10. As to the kind of experiment: shrunken log2 fold change of peptide-encoding DNA abundance (4.5 h post-induction vs induction); higher = less antimicrobial activity (less host growth inhibition). Particulars: time post-induction: 4.5 h; library: site-saturation at positions 5, 18, 19, 20.
Consider RRIRNRPPRLPRPRPRPFALPRP, for which the “shrunken log2 fold change” value came to 0.814.
Regarding RRIRPRPPRLPRPRPRPQFNPRP, the “shrunken log2 fold change” value was -0.5.
The result for RRIRFRPPRLPRPRPRPYEPPRP reads -0.204; that for RRIRWRPPRLPRPRPRPSKKPRP, 0.0769.
With RRIRGRPPRLPRPRPRPYCWPRP, the “shrunken log2 fold change” value was 0.0345.
The result for RRIRTRPPRLPRPRPRPSMSPRP reads -0.655.
Under RRIRCRPPRLPRPRPRPLWQPRP stands -0.147; under RRIRYRPPRLPRPRPRPTELPRP, 0.0588.
Consider RRIRTRPPRLPRPRPRPTCTPRP, for which the “shrunken log2 fold change” value was -0.094.
Consider RRIRQRPPRLPRPRPRPLQQPRP, for which the “shrunken log2 fold change” value is -0.123.
RRIRKRPPRLPRPRPRPWWLPRP: the “shrunken log2 fold change” value is 0.252.
For the sequence RRIRKRPPRLPRPRPRPFGRPRP, the “shrunken log2 fold change” value is -0.209.
RRIRVRPPRLPRPRPRPDSKPRP: the “shrunken log2 fold change” value was -0.34.
With RRIRGRPPRLPRPRPRPTFRPRP, the “shrunken log2 fold change” value is -0.135.
Turning to RRIRCRPPRLPRPRPRPGVDPRP, the “shrunken log2 fold change” value was -0.0475.
Take RRIRKRPPRLPRPRPRPEGMPRP: the “shrunken log2 fold change” value came to 0.194.
The result for RRIRIRPPRLPRPRPRPTTYPRP reads -0.868.
Consider RRIRIRPPRLPRPRPRPPVHPRP, for which the “shrunken log2 fold change” value was -0.185.
On to RRIRFRPPRLPRPRPRPPCGPRP, for which the “shrunken log2 fold change” value is 0.362.
Turning to RRIRWRPPRLPRPRPRPPGGPRP, the “shrunken log2 fold change” value was 0.669.
Under RRIRCRPPRLPRPRPRPNTPPRP stands -0.345; under RRIRYRPPRLPRPRPRPAWNPRP, -0.374.
The result for RRIRGRPPRLPRPRPRPCLTPRP reads 0.496; that for RRIRGRPPRLPRPRPRPIAQPRP, 0.838; that for RRIRARPPRLPRPRPRPVFWPRP, 0.699.
The result for RRIRVRPPRLPRPRPRPHICPRP reads -0.18; that for RRIRHRPPRLPRPRPRPIPTPRP, -0.218.
In the case of RRIRDRPPRLPRPRPRPFIWPRP, the “shrunken log2 fold change” value stood at 0.293.
With RRIRRRPPRLPRPRPRPIPLPRP, the “shrunken log2 fold change” value came to 0.194.
The result for RRIRTRPPRLPRPRPRPKIFPRP reads -0.219; that for RRIRARPPRLPRPRPRPCTVPRP, -0.26.
For the sequence RRIRVRPPRLPRPRPRPKSRPRP, the “shrunken log2 fold change” value was 0.0366.
Take RRIRFRPPRLPRPRPRPEFIPRP: the “shrunken log2 fold change” value is -0.523.
Turning to RRIRKRPPRLPRPRPRPIYYPRP, the “shrunken log2 fold change” value is -0.37.
In the case of RRIRPRPPRLPRPRPRPIMMPRP, the “shrunken log2 fold change” value is -0.199.
The result for RRIRLRPPRLPRPRPRPMWQPRP reads 0.0197.
For the sequence RRIRARPPRLPRPRPRPMFEPRP, the “shrunken log2 fold change” value was 0.3.
In the case of RRIRLRPPRLPRPRPRPYIFPRP, the “shrunken log2 fold change” value is -0.549.
As for RRIRMRPPRLPRPRPRPEYGPRP, the “shrunken log2 fold change” value is 0.132.
RRIRERPPRLPRPRPRPFSEPRP: the “shrunken log2 fold change” value turned out to be 0.0188.
On to RRIRKRPPRLPRPRPRPQWQPRP, for which the “shrunken log2 fold change” value came out at 0.0827.
Turning to RRIRMRPPRLPRPRPRPLCDPRP, the “shrunken log2 fold change” value came out at 1.11.
Take RRIRVRPPRLPRPRPRPMIRPRP: the “shrunken log2 fold change” value is -0.147.
With RRIRMRPPRLPRPRPRPSLVPRP, the “shrunken log2 fold change” value was -0.252.
The result for RRIRMRPPRLPRPRPRPMSDPRP reads -0.095; that for RRIRKRPPRLPRPRPRPRLWPRP, 1.01.
In the case of RRIRQRPPRLPRPRPRPHFQPRP, the “shrunken log2 fold change” value was -0.108.
Take RRIRERPPRLPRPRPRPWRIPRP: the “shrunken log2 fold change” value was -0.0301.
As to RRIRLRPPRLPRPRPRPRFVPRP, the “shrunken log2 fold change” value was 0.123.
Regarding RRIRERPPRLPRPRPRPVRNPRP, the “shrunken log2 fold change” value is -0.41.
In the case of RRIRCRPPRLPRPRPRPYSKPRP, the “shrunken log2 fold change” value is -0.192.
For the sequence RRIRDRPPRLPRPRPRPISKPRP, the “shrunken log2 fold change” value is 0.002.
Under RRIRQRPPRLPRPRPRPQDMPRP stands 0.0179; under RRIRSRPPRLPRPRPRPDIGPRP, -0.113; under RRIRCRPPRLPRPRPRPHTCPRP, 0.0253.
Take RRIRTRPPRLPRPRPRPCPKPRP: the “shrunken log2 fold change” value was found to be 0.0604.
The result for RRIRGRPPRLPRPRPRPVTHPRP reads 0.106; that for RRIRPRPPRLPRPRPRPNWWPRP, 0.717; that for RRIRQRPPRLPRPRPRPLMQPRP, 0.0776.
As to RRIRWRPPRLPRPRPRPQEIPRP, the “shrunken log2 fold change” value is -0.0137.
For RRIRERPPRLPRPRPRPWGFPRP, the “shrunken log2 fold change” value was 0.0221.
Take RRIRARPPRLPRPRPRPKDYPRP: the “shrunken log2 fold change” value was -0.248.
The result for RRIRRRPPRLPRPRPRPGWGPRP reads 0.497.
For RRIRLRPPRLPRPRPRPQVCPRP, the “shrunken log2 fold change” value was -0.00713.
RRIRWRPPRLPRPRPRPQQCPRP: the “shrunken log2 fold change” value turned out to be 0.112.
Regarding RRIRRRPPRLPRPRPRPWCWPRP, the “shrunken log2 fold change” value amounted to 0.123.
Take RRIRYRPPRLPRPRPRPLIIPRP: the “shrunken log2 fold change” value is -1.2.
In the case of RRIRRRPPRLPRPRPRPDVMPRP, the “shrunken log2 fold change” value is 0.195.
As to RRIRFRPPRLPRPRPRPMFEPRP, the “shrunken log2 fold change” value is -0.0233.
With RRIRLRPPRLPRPRPRPMLFPRP, the “shrunken log2 fold change” value was -0.136.
On to RRIRQRPPRLPRPRPRPFLVPRP, for which the “shrunken log2 fold change” value amounted to 0.000414.
Under RRIRCRPPRLPRPRPRPIQNPRP stands -0.538; under RRIRGRPPRLPRPRPRPAEEPRP, 1.15.
RRIRARPPRLPRPRPRPSVKPRP: the “shrunken log2 fold change” value worked out at 0.133.
For the sequence RRIRYRPPRLPRPRPRPDPWPRP, the “shrunken log2 fold change” value is -0.26.
Turning to RRIRPRPPRLPRPRPRPDNKPRP, the “shrunken log2 fold change” value was -0.778.
Under RRIRVRPPRLPRPRPRPYNLPRP stands -0.414; under RRIRMRPPRLPRPRPRPPLDPRP, 1.03; under RRIRFRPPRLPRPRPRPKCEPRP, 0.051.
With RRIRDRPPRLPRPRPRPIMYPRP, the “shrunken log2 fold change” value is -0.0948.
As to RRIRHRPPRLPRPRPRPHKKPRP, the “shrunken log2 fold change” value is -0.0741.
RRIRARPPRLPRPRPRPWYIPRP: the “shrunken log2 fold change” value is -0.257.
As for RRIRDRPPRLPRPRPRPNSVPRP, the “shrunken log2 fold change” value was -0.0426.
Under RRIRYRPPRLPRPRPRPMIMPRP stands -0.0957.
Under RRIRQRPPRLPRPRPRPMTRPRP stands 0.0107.
Under RRIRLRPPRLPRPRPRPNHAPRP stands -0.0276; under RRIRWRPPRLPRPRPRPTWDPRP, 0.395.
Regarding RRIRMRPPRLPRPRPRPGYPPRP, the “shrunken log2 fold change” value came to 0.0749.
Take RRIRWRPPRLPRPRPRPIAKPRP: the “shrunken log2 fold change” value is -0.283.
For the sequence RRIRNRPPRLPRPRPRPNRIPRP, the “shrunken log2 fold change” value was -0.233.
In the case of RRIRRRPPRLPRPRPRPSNLPRP, the “shrunken log2 fold change” value stood at 0.112.
With RRIRVRPPRLPRPRPRPTYAPRP, the “shrunken log2 fold change” value was found to be 0.141.
As for RRIRKRPPRLPRPRPRPLCRPRP, the “shrunken log2 fold change” value worked out at 0.392.
For RRIRFRPPRLPRPRPRPVNNPRP, the “shrunken log2 fold change” value is -0.316.
As for RRIRRRPPRLPRPRPRPVEYPRP, the “shrunken log2 fold change” value was -0.00275.
Under RRIRRRPPRLPRPRPRPIDWPRP stands 0.122.
For RRIRERPPRLPRPRPRPSLNPRP, the “shrunken log2 fold change” value was -0.181.
For RRIRIRPPRLPRPRPRPFRTPRP, the “shrunken log2 fold change” value is -0.241.
Take RRIRNRPPRLPRPRPRPPNRPRP: the “shrunken log2 fold change” value is 2.99.
As for RRIRYRPPRLPRPRPRPKNGPRP, the “shrunken log2 fold change” value was determined as 0.013.
Under RRIRDRPPRLPRPRPRPQCWPRP stands 0.0162; under RRIRKRPPRLPRPRPRPDHFPRP, 0.0027.
Turning to RRIRDRPPRLPRPRPRPCCMPRP, the “shrunken log2 fold change” value worked out at 0.125.
Under RRIRHRPPRLPRPRPRPVSAPRP stands 0.0852.
The result for RRIRVRPPRLPRPRPRPHLPPRP reads -0.0222; that for RRIRFRPPRLPRPRPRPQHLPRP, -1.22; that for RRIRFRPPRLPRPRPRPDSHPRP, -0.495.
Under RRIRCRPPRLPRPRPRPQTQPRP stands 0.308; under RRIRDRPPRLPRPRPRPYAEPRP, 0.247; under RRIRIRPPRLPRPRPRPYDQPRP, -0.295.
RRIRLRPPRLPRPRPRPFMSPRP: the “shrunken log2 fold change” value is -1.39.
Consider RRIRFRPPRLPRPRPRPNTSPRP, for which the “shrunken log2 fold change” value was -0.307.
Take RRIRFRPPRLPRPRPRPCQNPRP: the “shrunken log2 fold change” value is 0.0482.
Turning to RRIRSRPPRLPRPRPRPCNEPRP, the “shrunken log2 fold change” value is -1.09.
On to RRIRFRPPRLPRPRPRPTNGPRP, for which the “shrunken log2 fold change” value is -0.137.
As to RRIRVRPPRLPRPRPRPVKFPRP, the “shrunken log2 fold change” value was -0.133.
In the case of RRIRKRPPRLPRPRPRPQKVPRP, the “shrunken log2 fold change” value is -0.0143.
Consider RRIRFRPPRLPRPRPRPWTGPRP, for which the “shrunken log2 fold change” value is -0.00822.
For RRIRVRPPRLPRPRPRPHDIPRP, the “shrunken log2 fold change” value is 0.0663.
As for RRIRKRPPRLPRPRPRPFYLPRP, the “shrunken log2 fold change” value is -0.154.
Consider RRIRIRPPRLPRPRPRPCRTPRP, for which the “shrunken log2 fold change” value was -0.333.
Consider RRIRQRPPRLPRPRPRPWHAPRP, for which the “shrunken log2 fold change” value was -0.106.
Turning to RRIRYRPPRLPRPRPRPYPCPRP, the “shrunken log2 fold change” value was -0.268.
On to RRIRARPPRLPRPRPRPKNYPRP, for which the “shrunken log2 fold change” value is -0.279.
For RRIRHRPPRLPRPRPRPKTCPRP, the “shrunken log2 fold change” value is -0.0999.
